The values below come from PMC6864063.

Chain of Choline kinase alpha Δ49 P(61,62)A (P35790 other isoform, or with tags, fused parts or gaps mutant): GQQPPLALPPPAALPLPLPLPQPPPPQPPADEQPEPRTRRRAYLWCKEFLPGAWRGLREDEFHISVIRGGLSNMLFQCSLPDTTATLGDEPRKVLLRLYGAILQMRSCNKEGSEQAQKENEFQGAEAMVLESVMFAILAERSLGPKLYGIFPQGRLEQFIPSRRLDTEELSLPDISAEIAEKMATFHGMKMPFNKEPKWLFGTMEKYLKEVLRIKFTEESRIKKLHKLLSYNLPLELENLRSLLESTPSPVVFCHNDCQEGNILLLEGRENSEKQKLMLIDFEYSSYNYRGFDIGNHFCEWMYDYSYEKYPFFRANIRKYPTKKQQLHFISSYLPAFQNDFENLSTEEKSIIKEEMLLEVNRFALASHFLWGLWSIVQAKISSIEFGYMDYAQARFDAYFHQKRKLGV
Chain of Choline kinase alpha Δ49 P(72,73)A (P35790 other isoform, or with tags, fused parts or gaps mutant): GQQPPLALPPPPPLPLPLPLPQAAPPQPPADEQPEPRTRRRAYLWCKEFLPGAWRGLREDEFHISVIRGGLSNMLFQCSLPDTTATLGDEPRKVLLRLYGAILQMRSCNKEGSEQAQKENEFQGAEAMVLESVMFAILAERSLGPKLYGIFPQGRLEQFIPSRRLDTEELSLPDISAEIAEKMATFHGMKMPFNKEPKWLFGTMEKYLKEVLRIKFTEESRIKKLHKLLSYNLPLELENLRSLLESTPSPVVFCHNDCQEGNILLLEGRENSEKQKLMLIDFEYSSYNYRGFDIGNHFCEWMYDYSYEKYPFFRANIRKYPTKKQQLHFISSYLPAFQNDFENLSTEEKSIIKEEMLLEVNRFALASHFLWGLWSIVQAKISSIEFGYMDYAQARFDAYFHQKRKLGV
Chain of Choline kinase alpha Δ49 P(59,60)A (P35790 other isoform, or with tags, fused parts or gaps mutant): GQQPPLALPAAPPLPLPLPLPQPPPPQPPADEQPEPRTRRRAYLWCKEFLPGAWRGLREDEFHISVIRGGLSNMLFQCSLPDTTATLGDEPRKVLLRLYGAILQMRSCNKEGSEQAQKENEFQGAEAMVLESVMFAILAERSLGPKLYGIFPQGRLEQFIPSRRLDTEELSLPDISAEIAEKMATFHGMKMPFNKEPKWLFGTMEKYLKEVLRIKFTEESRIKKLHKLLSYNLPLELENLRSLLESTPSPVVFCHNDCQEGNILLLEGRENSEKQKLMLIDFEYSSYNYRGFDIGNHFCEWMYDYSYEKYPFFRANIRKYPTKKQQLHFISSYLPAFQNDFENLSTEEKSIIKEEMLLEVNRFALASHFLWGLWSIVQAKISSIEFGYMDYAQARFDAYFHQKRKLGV
Chain of Choline kinase alpha Δ49, wild type (P35790 50-457, stated change not applied): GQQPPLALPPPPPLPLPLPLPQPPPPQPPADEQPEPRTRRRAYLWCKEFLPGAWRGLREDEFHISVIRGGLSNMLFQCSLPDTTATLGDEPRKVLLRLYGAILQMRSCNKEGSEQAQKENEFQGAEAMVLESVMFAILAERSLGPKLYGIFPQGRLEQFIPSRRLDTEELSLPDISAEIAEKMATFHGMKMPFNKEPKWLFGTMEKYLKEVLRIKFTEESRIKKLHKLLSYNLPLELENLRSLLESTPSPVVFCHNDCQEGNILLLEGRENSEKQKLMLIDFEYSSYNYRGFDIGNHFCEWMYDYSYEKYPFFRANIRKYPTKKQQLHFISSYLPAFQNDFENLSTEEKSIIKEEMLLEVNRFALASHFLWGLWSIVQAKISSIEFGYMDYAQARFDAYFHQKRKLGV

This experiment addresses His-SUMO-tagged SH3 domain of c-Src (UniProt P12931). Nature of the experiment: pull-down; His-SUMO-c-Src-SH3 as bait on Ni2+ beads, cleaved ChoKα constructs as probes; equimolar (1:1, 25 µM); 200 mM KCl, 30 mM imidazole pH 8.5, 25 mM Tris pH 8.5, 10 mM MgCl2; three washes; SDS-PAGE, Coomassie; band intensities by ImageJ.
As to “Choline kinase alpha Δ49, wild type (from UniProt P35790 50-457) (domain or fragment)”, the ratio of the ChoKα band intensity to the His-SUMO-cSrcSH3 band intensity is 0.69.
With “Choline kinase alpha Δ49 P(72,73)A (from UniProt P35790 50-457) (domain or fragment)”, the ratio of the ChoKα band intensity to the His-SUMO-cSrcSH3 band intensity turned out to be 0.88.
For the substance “Choline kinase alpha Δ49 P(59,60)A (from UniProt P35790 50-457) (domain or fragment)”, the ratio of the ChoKα band intensity to the His-SUMO-cSrcSH3 band intensity is 0.7.
Regarding “Choline kinase alpha Δ49 P(61,62)A (from UniProt P35790 50-457) (domain or fragment)”, the ratio of the ChoKα band intensity to the His-SUMO-cSrcSH3 band intensity stood at 0.2.
